Results taken from US10894091B2, “Linker units and molecular constructs comprising the same” (priority 2017, dated 2021).
maleimide‑FITC = FITC conjugated through maleimide to the Cys of the Cys-containing CCK8 peptide

T1: human CCK8-type B receptor molecules on Panc-1 tumor cell line (Homo sapiens, UniProt P32239)
T1 construct: human CCK8-type B receptor molecules on Panc-1 tumor cell line; endogenous in cells; host or cells: Panc-1 pancreatic carcinoma cell line
T1 sequence (P32239 1-447): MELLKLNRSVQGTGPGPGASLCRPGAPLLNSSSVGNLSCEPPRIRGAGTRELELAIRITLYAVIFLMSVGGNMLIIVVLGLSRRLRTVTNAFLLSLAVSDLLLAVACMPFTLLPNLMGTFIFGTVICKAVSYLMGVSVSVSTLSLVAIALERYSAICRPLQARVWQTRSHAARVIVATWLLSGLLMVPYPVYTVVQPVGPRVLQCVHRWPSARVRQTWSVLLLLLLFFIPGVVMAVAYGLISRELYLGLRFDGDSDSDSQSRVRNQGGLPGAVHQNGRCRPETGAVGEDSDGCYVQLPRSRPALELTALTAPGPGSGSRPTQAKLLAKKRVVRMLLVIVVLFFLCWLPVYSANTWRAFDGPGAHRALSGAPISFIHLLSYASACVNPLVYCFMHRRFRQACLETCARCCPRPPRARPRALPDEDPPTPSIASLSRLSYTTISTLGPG

B1: mutated teplizumab: scFv of teplizumab with CDR3 VH cysteine substituted by serine, SEQ ID NO: 21 (protein)
scFv: QVQLVQSGGGVVQPGRSLRLSCKASGYTFTRYTMHWVRQAPGKGLEWIGYINPSRGYTNYNQKVKDRFTISRDNSKNTAFLQMDSLRPEDTGVYFCARYYDDHYSLDYWGQGTPVTVSSGSTSGSGKPGSGEGSTKGDIQMTQSPSSLSASVGDRVTITCSASSSVSYMNWYQQTPGKAPKRWIYDTSKLASGVPSRFSGSGSGTDYTFTISSLQPEDIATYYCQQWSSNPFTFGQGTKLQITRGGGGSGGGGSC
B2: DBCO-conjugated scFv specific for CD3: mutated teplizumab scFv conjugated at C-terminal cysteine with Mal-PEG5-DBCO (conjugate)
scFv: B1 scFv

Key:
[1] = biological target: T1, human CCK8-type B receptor molecules on Panc-1 tumor cell line; assay: Staining analysis (FACS) of binding of CCK8 peptide to CCK-type B receptor-expressing tumor cell line; assay type: cell-based; details: 150 μg/ml CCK8-FITC reaction mixture, on ice 30 minutes, FIG. 24
Experimental: The CCK8 peptide molecule was analyzed for its ability to bind to human CCK8-type B receptor molecules on Panc-1 tumor cell line. Panc-1 was established from a pancreatic carcinoma, which was extracted via pancreatico-duodenectomy specimen from an individual. Malignancy of this cell line was verified via in vitro and in vivo assays. Prior to staining, the Cys-containing CCK8 peptide was conjugated with maleimide-FITC to produce a FITC-labeled CCK8 peptide as a detective CCK8 molecule with FITC. The assay was then performed by incubating 2×10^6 Panc-1 cells with 150 μg/ml of the reaction mixture of CCK8-FITC molecule in PBS, with 1 FBS and 1% sodium azide on ice for 30 minutes in the dark. The staining of maleimide-FITC alone was used a negative control. The staining of cells was analyzed by FACS (FACSCanto II; BD Biosciences). The x-axis of histogram is the fluorescence intensity. In FIG. 24, the dark area represents the background of fluorescence distribution of Panc-1 cells, the dashed line is the fluorescence distribution of Panc-1 cells stained maleimide-FITC and the dark line is the fluorescence distribution of Panc-1 cells stained CCK8-FITC.

[2] = biological target: T2, human CD3 on Jurkat T cell line (Homo sapiens, UniProt P07766); assay: Staining analysis (FACS) of binding of anti-CD3 scFv to T cells; assay type: cell-based
T2 construct: human T lymphocyte cell which express the T cell receptor (TcR)/CD3 complexes on the cell surface; endogenous in cells; host or cells: Jurkat T cell line
T2 sequence (P07766 23-207): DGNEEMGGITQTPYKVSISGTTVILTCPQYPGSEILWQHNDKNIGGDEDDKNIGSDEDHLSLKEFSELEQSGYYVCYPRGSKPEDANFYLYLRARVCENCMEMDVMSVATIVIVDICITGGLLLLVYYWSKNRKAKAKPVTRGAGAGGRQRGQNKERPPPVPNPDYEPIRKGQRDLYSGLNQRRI
T2 sequence (P09693 23-182 partner): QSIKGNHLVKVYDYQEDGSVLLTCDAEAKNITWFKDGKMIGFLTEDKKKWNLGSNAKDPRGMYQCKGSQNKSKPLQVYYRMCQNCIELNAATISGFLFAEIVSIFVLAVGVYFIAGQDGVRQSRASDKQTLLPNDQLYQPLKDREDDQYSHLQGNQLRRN
T2 sequence (P04234 22-171 partner): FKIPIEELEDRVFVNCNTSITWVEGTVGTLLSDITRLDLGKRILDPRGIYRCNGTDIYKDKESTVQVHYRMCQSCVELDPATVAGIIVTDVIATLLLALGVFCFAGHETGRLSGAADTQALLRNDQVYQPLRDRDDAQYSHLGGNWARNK
T2 sequence (P20963 22-164 partner): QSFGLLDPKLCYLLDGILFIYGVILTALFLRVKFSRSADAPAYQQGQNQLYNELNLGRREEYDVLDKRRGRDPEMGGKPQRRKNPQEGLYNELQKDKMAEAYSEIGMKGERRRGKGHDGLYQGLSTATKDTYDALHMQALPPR
T2 sequence (P01848 whole entry partner): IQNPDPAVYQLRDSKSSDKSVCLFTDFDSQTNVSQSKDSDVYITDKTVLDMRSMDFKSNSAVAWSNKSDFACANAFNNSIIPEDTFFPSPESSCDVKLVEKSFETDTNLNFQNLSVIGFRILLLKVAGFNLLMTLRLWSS
T2 sequence (P01850 whole entry partner): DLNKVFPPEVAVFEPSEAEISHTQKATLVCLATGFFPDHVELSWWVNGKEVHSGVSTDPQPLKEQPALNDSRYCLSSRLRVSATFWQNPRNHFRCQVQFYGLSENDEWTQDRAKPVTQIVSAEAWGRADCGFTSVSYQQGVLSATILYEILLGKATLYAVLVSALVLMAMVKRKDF
Experimental: The ability of the mutated teplizumab to bind to human T lymphocytes, which express CD3 was studied with Jurkat T cell line. The mutated teplizumab was analyzed for their ability to bind to human CD3 molecules on Jurkat T cell line. Jurkat cells are immortalized line of human T lymphocyte cell which express the T cell receptor (TcR)/CD3 complexes on the cell surface.
The assay was performed by incubating 2×10^6 Jurkat T cells with 0.1 and 1 μg/ml of the scFv in PBS with 1 FBS and 0.1% sodium azide on ice for 30 minutes. Cells were washed and incubated with FITC-conjugated Protein L (ACROBiosystems Inc., Newark, USA), diluted 1:200 in PBS/FBS, at 4° C. for 30 minutes in the dark. Protein L-FITC and FITC-conjugated rabbit anti-mouse IgG.Fc (AbD Serotec) were used as secondary antibodies. The staining of secondary antibodies alone were as negative controls. OKT3, a mouse monoclonal antibody specific for human CD3, was used as the positive control. The staining of cells was analyzed by FACS (FACSCanto II; BD Biosciences). The x-axis of histogram is the fluorescence intensity.
The purity of DBCO-conjugated scFvs specific for CD3 was identified through Coomassie staining of 12% SDS-PAGE (data not shown).

[3] = flow cytometric analysis, FIG. 23C

Molecule	binding to Panc-1 cells [1]	binding to T cells ([2]; Jurkat T cells, 0.1 and 1 μg/ml scFv, on ice 30 minutes, FITC-conjugated Protein L, FACS, FIG. 23B)	binding to T cells [2, 3]
FITC-labeled CCK8 peptide (Ac-C(maleimide‑FITC)GGGGSDYMGWMDF-NH2; ends and bridges not checked)	bound to Panc-1 cells		
B1		bound to T cells	bound to T cells
B2			bound to T cells
